To fix the notation:
T1: cynomolgus IL-18BP (cynomolgus monkey)
T1 construct: Generated in-house; also called cyIL-18BP; cyno IL-18BP
T1 chain: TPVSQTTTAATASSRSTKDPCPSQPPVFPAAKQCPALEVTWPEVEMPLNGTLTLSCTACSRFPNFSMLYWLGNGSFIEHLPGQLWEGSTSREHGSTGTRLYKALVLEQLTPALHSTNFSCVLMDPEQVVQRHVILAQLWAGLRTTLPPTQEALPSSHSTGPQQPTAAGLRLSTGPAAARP

T2: human IL-18BP (interleukin-18 binding protein, isoform A) (human, UniProt O95998 31-194)
T2 construct: cell assays used Sino Biological 10357-H08H; PBMC assay 1 relies on endogenous IL-18BP; UniProt number is printed as 095998; also called hIL-18BP
T2 sequence: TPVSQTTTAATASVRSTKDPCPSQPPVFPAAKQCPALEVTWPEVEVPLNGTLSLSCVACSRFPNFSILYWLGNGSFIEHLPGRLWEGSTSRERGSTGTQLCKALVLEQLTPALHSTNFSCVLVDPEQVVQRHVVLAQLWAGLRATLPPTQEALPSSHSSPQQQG

B1: SA302a (antibody, human IgG1, V domains shown)
VH: QVQLQESGPGLVKPSQTLSLTCTVSGYSITSDYNAHWIRQPPGKGLEWIGYIHYSGSTNYNPSLKSRVTISRDTSKNQFSLKLSSVTAADTAVYYCARNYGSIYVNYFDYWGQGTLVTVSS
VL: EIVLTQSPATLSLSPGERATLSCSASSSVSYMYWYQQKPGQAPRPLIYRTSNLASGIPARFSGSGSGTDFTLTISSLEPEDFAVYYCQQYHSYPTFGGGTKVEIK
notes: humanized; human IgG1 (suffix a), kappa
B2: SA310a (antibody, human IgG1, V domains shown)
VH: B1 VH with N59M
VL: B1 VL
notes: as for B1
B3: SA303a (antibody, human IgG1, V domains shown)
VH: B1 VH with Y100F
VL: B1 VL
notes: as for B1
B4: SA309a (antibody, human IgG1, V domains shown)
VH: B1 VH with S57Q
VL: B1 VL
notes: as for B1
B5: SA322a (antibody, human IgG1, V domains shown)
VH: B1 VH with S31Q, S57Q
VL: B1 VL
notes: as for B1
B6: SA320a (antibody, human IgG1, V domains shown)
VH: B1 VH with S31Q, S57Q, N59Y, Y100F
VL: B1 VL
notes: as for B1
B7: SA340a (antibody, human IgG1, V domains shown)
VH: B1 VH with S31Q, S57Q, N59Y, Y100F
VL: B1 VL with T95K
notes: as for B1
B8: SA337a (antibody, human IgG1, V domains shown)
VH: B1 VH with S31Q, S57Q
VL: B1 VL with Q89L
notes: as for B1
B9: SA338a (antibody, human IgG1, V domains shown)
VH: B1 VH with S31Q, S57Q, N59Y, Y100F
VL: B1 VL with Q89L
notes: as for B1
B10: SA307a (antibody, human IgG1, V domains shown)
VH: B1 VH with S31Q
VL: B1 VL
notes: as for B1
B11: SA328a (antibody, human IgG1, V domains shown)
VH: B1 VH
VL: B1 VL with P94V
notes: as for B1
B12: SA327a (antibody, human IgG1, V domains shown)
VH: B1 VH
VL: B1 VL with S92G
notes: as for B1
B13: SA318a (antibody, human IgG1, V domains shown)
VH: B1 VH with S31Q, S57Q, N59M, Y100F
VL: B1 VL
notes: as for B1
B14: SA330a (antibody, human IgG1, V domains shown)
VH: B1 VH with S57Q, N59Y, Y100F
VL: B1 VL
notes: as for B1
B15: SA321a (antibody, human IgG1, V domains shown)
VH: B1 VH with S31Q, S57Q, N59L, Y100F
VL: B1 VL
notes: as for B1
B16: SA329a (antibody, human IgG1, V domains shown)
VH: B1 VH
VL: B1 VL with T95K
notes: as for B1
B17: SA326a (antibody, human IgG1, V domains shown)
VH: B1 VH
VL: B1 VL with Q89L
notes: as for B1
B18: SA325a (antibody, human IgG1, V domains shown)
VH: B1 VH
VL: B1 VL with Q89E
notes: as for B1
B19: SA319a (antibody, human IgG1, V domains shown)
VH: B1 VH with S31Q, S57Q, Y100F
VL: B1 VL
notes: as for B1
B20: SA32a (antibody, human IgG1, V domains shown)
VH: EVQLQQSGPELVKTGASVKISCKASGYSFTGYYMHWVKQSHGKSLEWIGYISCYNGATSYNQKFKGKATFTVDTSSSTAYMQFNSLTSEDSAVYYCAITLHYAMDYWGQGTSVAS
VL: DIVMTQAAFSNPVTLGTSASISCRSSKSLLHSNGITYLYWYLQKPGQSPQLLIYQMSNLASGVPDRFSSSGSGTDFTLRISRVEAEDVGVYYCAQNLELPWTFGGGTKLEIK
notes: murine variable regions on human IgG1 kappa constant regions

Changes are numbered by the printed parent chain.

In one experiment the target is T1, cynomolgus IL-18BP. Nature of the experiment: BLI (Octet), mAb on AHC biosensor. On the technique in general: In BLI a coated tip is dipped into the sample, and binding shifts an interference pattern.
For the molecule B1, the Kd (usually a measure of binding affinity in units of concentration) stood at 0.156 nM.

Molecule B2 gave an equilibrium dissociation constant (Kd) of 0.028 nM.

Consider B3, for which binding was characterised by a dissociation constant (Kd) of 0.077 nM.

Molecule B4 yielded a Kd of 0.024 nM.

Regarding B5, binding was characterised by a dissociation constant (Kd) of 0.02 nM.

B6 returned a dissociation constant (Kd) of 0.02 nM.

For B7, the equilibrium dissociation constant (Kd) turned out to be 0.036 nM.

In the case of B8, the Kd is 0.042 nM.

B9 had a Kd of 0.024 nM.

Regarding B10, binding was put at a Kd of 0.027 nM.

A further experiment deals with T2, human IL-18BP (interleukin-18 binding …). Nature of the experiment: BLI (Octet), mAb on AHC biosensor.
In the case of B1, the equilibrium dissociation constant (Kd) stood at 0.345 nM.

The molecule B11 had a dissociation constant Kd of 0.133 nM.

B2 came in with a Kd of 0.175 nM.

B3 had a Kd of 0.182 nM.

For B4, binding was put at a Kd of 0.061 nM.

For B12, the Kd was 0.249 nM.

Molecule B5 gave an equilibrium dissociation constant (Kd) of 0.054 nM.

For the molecule B6, the dissociation constant (Kd) stood at 0.052 nM.

B13 registered a Kd of 0.015 nM.

For the molecule B7, binding was put at a Kd of 0.027 nM.

With B14, the dissociation constant (Kd) is 0.076 nM.

In the case of B8, the dissociation constant (Kd) amounted to 0.047 nM.

B15 displayed a Kd of 0.136 nM.

Consider B16, for which binding was characterised by a dissociation constant (Kd) of 0.107 nM.

Consider B17, for which the Kd stood at 0.128 nM.

On to B18, for which the dissociation constant Kd came out at 0.468 nM.

Regarding B19, binding was put at a Kd of 0.254 nM.

Consider B9, for which the Kd came out at 0.032 nM.

B10 came in with an equilibrium dissociation constant (Kd) of 0.054 nM.

The target is the same in a further experiment. Nature of the experiment: cell-based or functional assay.
Turning to B20, the “EC50 (nM), KG-1 Assay (IFNγ)” value was 109 nM.

For the next experiment the target is unchanged. Nature of the experiment: cell-based or functional assay. This is another data set of the same source.
Take B1: the “EC50 in PBMC Assay 1 (endogenous IL-18BP), IFNγ” value stood at 15 nM and the “EC50 in PBMC Assay 2 (precomplexed IL-18BP), IFNγ” value worked out at 2.15 nM.

B11: the “EC50 in PBMC Assay 1 (endogenous IL-18BP), IFNγ” value was 2 nM and the “EC50 in PBMC Assay 2 (precomplexed IL-18BP), IFNγ” value stood at 5.8 nM.

B2: the “EC50 in PBMC Assay 1 (endogenous IL-18BP), IFNγ” value came out at 1.9 nM and the “EC50 in PBMC Assay 2 (precomplexed IL-18BP), IFNγ” value came to 0.94 nM.

Turning to B3, the “EC50 in PBMC Assay 1 (endogenous IL-18BP), IFNγ” value came to 1.6 nM and the “EC50 in PBMC Assay 2 (precomplexed IL-18BP), IFNγ” value was 2.75 nM.

With B4, the “EC50 in PBMC Assay 1 (endogenous IL-18BP), IFNγ” value stood at 2.8 nM and the “EC50 in PBMC Assay 2 (precomplexed IL-18BP), IFNγ” value is 0.62 nM.

As for B12, the “EC50 in PBMC Assay 1 (endogenous IL-18BP), IFNγ” value was determined as 7.1 nM and the “EC50 in PBMC Assay 2 (precomplexed IL-18BP), IFNγ” value came out at 4 nM.

As for B5, the “EC50 in PBMC Assay 1 (endogenous IL-18BP), IFNγ” value came out at 0.8 nM and the “EC50 in PBMC Assay 2 (precomplexed IL-18BP), IFNγ” value is 0.53 nM.

Turning to B6, the “EC50 in PBMC Assay 1 (endogenous IL-18BP), IFNγ” value is 0.3 nM and the “EC50 in PBMC Assay 2 (precomplexed IL-18BP), IFNγ” value was 0.25 nM.

Turning to B13, the “EC50 in PBMC Assay 1 (endogenous IL-18BP), IFNγ” value came to 0.9 nM and the “EC50 in PBMC Assay 2 (precomplexed IL-18BP), IFNγ” value was found to be 0.7 nM.

As for B14, the “EC50 in PBMC Assay 1 (endogenous IL-18BP), IFNγ” value worked out at 21 nM and the “EC50 in PBMC Assay 2 (precomplexed IL-18BP), IFNγ” value turned out to be 0.9 nM.

As to B8, the “EC50 in PBMC Assay 1 (endogenous IL-18BP), IFNγ” value was 1 nM and the “EC50 in PBMC Assay 2 (precomplexed IL-18BP), IFNγ” value is 0.58 nM.

As for B15, the “EC50 in PBMC Assay 1 (endogenous IL-18BP), IFNγ” value stood at 0.9 nM and the “EC50 in PBMC Assay 2 (precomplexed IL-18BP), IFNγ” value turned out to be 0.85 nM.

Take B16: the “EC50 in PBMC Assay 1 (endogenous IL-18BP), IFNγ” value was determined as 5.3 nM and the “EC50 in PBMC Assay 2 (precomplexed IL-18BP), IFNγ” value turned out to be 7.4 nM.

B17: the “EC50 in PBMC Assay 1 (endogenous IL-18BP), IFNγ” value was found to be 7.5 nM and the “EC50 in PBMC Assay 2 (precomplexed IL-18BP), IFNγ” value was determined as 1.2 nM.

As to B18, the “EC50 in PBMC Assay 1 (endogenous IL-18BP), IFNγ” value came out at 6.1 nM and the “EC50 in PBMC Assay 2 (precomplexed IL-18BP), IFNγ” value worked out at 5 nM.

With B19, the “EC50 in PBMC Assay 1 (endogenous IL-18BP), IFNγ” value was determined as 0.2 nM and the “EC50 in PBMC Assay 2 (precomplexed IL-18BP), IFNγ” value worked out at 0.07 nM.

For B9, the “EC50 in PBMC Assay 1 (endogenous IL-18BP), IFNγ” value came to 0.5 nM and the “EC50 in PBMC Assay 2 (precomplexed IL-18BP), IFNγ” value came out at 0.33 nM.

With B10, the “EC50 in PBMC Assay 1 (endogenous IL-18BP), IFNγ” value was 1.6 nM and the “EC50 in PBMC Assay 2 (precomplexed IL-18BP), IFNγ” value turned out to be 1.47 nM.

A further experiment addresses T1, cynomolgus IL-18BP. Nature of the experiment: ratio of BLI KDs, cyno against human IL-18BP.
Take B1: the Cyno/human was 0.45 ratio.

On to B2, for which the Cyno/human is 0.16 ratio.

For B3, the Cyno/human worked out at 0.42 ratio.

Take B4: the Cyno/human came to 0.39 ratio.

With B5, the Cyno/human was found to be 0.37 ratio.

In the case of B6, the Cyno/human was 0.38 ratio.

As for B7, the Cyno/human is 1.33 ratio.

As to B8, the Cyno/human stood at 0.89 ratio.

As to B9, the Cyno/human was found to be 0.67 ratio.

B10: the Cyno/human was 0.5 ratio.

The next experiment has as its target T2, human IL-18BP (interleukin-18 binding …). Nature of the experiment: BLI, affinity column of Table E8.
B1 returned a Kd of 0.345 nM.

Molecule B11 came in with a dissociation constant Kd of 0.133 nM.

In the case of B2, the affinity, expressed as Kd, was 0.175 nM.

As for B3, binding was characterised by a dissociation constant (Kd) of 0.182 nM.

B4 showed a Kd of 0.061 nM.

The molecule B12 came in with a Kd of 0.249 nM.

With B5, the Kd was 0.054 nM.

With B6, the dissociation constant (Kd) was found to be 0.052 nM.

The molecule B13 displayed a Kd of 0.015 nM.

On to B14, for which the dissociation constant Kd was found to be 0.076 nM.

Molecule B8 had a dissociation constant Kd of 0.047 nM.

B15 had a dissociation constant Kd of 0.136 nM.

Turning to B16, the Kd turned out to be 0.107 nM.

B17 registered a Kd of 0.128 nM.

As for B18, binding was characterised by a dissociation constant (Kd) of 0.468 nM.

In turn, B19 yielded a Kd of 0.254 nM.

Turning to B9, the equilibrium dissociation constant (Kd) was determined as 0.032 nM.

For the molecule B10, binding was characterised by a dissociation constant (Kd) of 0.054 nM.

The target of a further experiment is T1, cynomolgus IL-18BP. Nature of the experiment: BLI (Octet), mAb on AHC biosensor. This is another data set of the same source.
B20 displayed a Kd of 19 nM.

A further experiment concerns the target T2, human IL-18BP (interleukin-18 binding …). Kind of experiment: BLI (Octet), mAb on AHC biosensor. This is another data set of the same source.
With B20, the affinity, expressed as Kd, was 17 nM.

Another experiment shares this target. Nature of the experiment: cell-based or functional assay. This is another data set of the same source.
Consider B20, for which the “EC50 (nM), HEK293 IL-18 Reporter Assay (SEAP)” value worked out at 6.82 nM.

A further experiment deals with hypo-IL-18 (IL-18 tethered to IL-18BP by a flexible linker with TEV site, 6xHis) (human). Nature of the experiment: BLI.
Sequence of hypo-IL-18 (IL-18 tethered to IL-18BP by a flexible linker with TEV site, 6xHis) (human) (chain, as listed by the source limits assumed): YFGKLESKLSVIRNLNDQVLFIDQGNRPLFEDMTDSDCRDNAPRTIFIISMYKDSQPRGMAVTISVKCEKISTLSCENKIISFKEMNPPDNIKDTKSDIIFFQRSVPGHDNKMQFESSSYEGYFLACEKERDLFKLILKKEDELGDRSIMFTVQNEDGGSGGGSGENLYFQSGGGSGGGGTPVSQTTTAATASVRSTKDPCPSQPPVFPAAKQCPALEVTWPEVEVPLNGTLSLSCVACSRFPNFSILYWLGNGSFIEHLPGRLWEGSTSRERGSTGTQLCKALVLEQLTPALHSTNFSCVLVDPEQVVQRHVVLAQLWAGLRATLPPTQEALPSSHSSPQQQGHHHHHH
B20: the binding result is reported as “no binding”.

For the origin of these results see patent US20250368745A1 (published 2025).
